Measured values from patent publication US6989369B2, “Kunitz domain peptides” (Dyax Corp., priority 2003, dated 2006).
Positions of bridges follow the written chain, without caps; N, C: chain ends. No end group written: not given here.

Experiments:
[1] = Clinical testing of DX-88 for hereditary angioedema (HAE); type: in vivo, human; settings: treatment of hereditary angioedema, initial data
HNE = target: T1, HNE (Homo sapiens, UniProt P08246); assay: HNE-neutralizing activity expected for doubly fused protein; type: biochemical; settings: expected value, protein not tested
T1 sequence (P08246 30-267): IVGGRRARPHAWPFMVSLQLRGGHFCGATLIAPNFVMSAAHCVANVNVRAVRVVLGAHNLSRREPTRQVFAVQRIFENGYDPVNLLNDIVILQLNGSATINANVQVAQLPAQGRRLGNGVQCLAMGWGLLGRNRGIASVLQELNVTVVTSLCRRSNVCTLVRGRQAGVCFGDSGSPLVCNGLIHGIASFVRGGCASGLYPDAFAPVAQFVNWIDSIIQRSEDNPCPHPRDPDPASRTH

[2] = rabbit
Excerpt: After radiolabeling, the two labeled protein preparations were purified from unbound label by size exclusion chromatography (SEC). Fractions from the SEC column having the highest radioactivity were pooled. The purified, radiolabeled preparations were characterized for specific activity by scintillation counting and for purity by SEC using a Superose-12 column equipped with an in-line radiation detector.
New Zealand White rabbits (ca. 2.5 Kg) were used for clearance measurements, with one animal each used for of the two labeled protein preparations. The radiolabeled preparation was injected into the animal via an ear vein. One blood sample was collected per animal per time point with early time points at approximately 0, 7, 15, 30, and 90 minutes and later time points at 4, 8, 16, 24, 48, 72, 96, 144, 168, and 192 hours. Samples (about 0.5 ml) were collected into anticoagulant (EDTA) tubes. Cells were separated from the plasma/serum fraction by centrifugation. The plasma fraction was divided into two aliquots. One plasma aliquot was stored at −70° C. and the other aliquot was kept at 4° C. for immediate analyses. Sample analyses included radiation counting for clearance rate determinations and SEC chromatography for in vivo stability.

[3] = about 840 mg, 80 open-heart surgery patients; cited from earlier work
[4] = after 8 days of treatment; cited from earlier work

Molecule: DX-88: Kunitz domain derived from the first Kunitz domain of human LACI, inhibits human plasma kallikrein; SEQ ID No.: 48 (EAMHSFCAFKADDGPCRAAHPRWFFNIFTRQCEEFIYGGCEGNQNRFESLEECKKMCTRD; DX-88 Kunitz domain peptide)
- safety and efficacy in the clinic [1]: safe and effective

Molecule: Dx890-HA-Dx890: albumin fused at both termini to DX-890 via (GGS)4GG linkers; SEQ ID No.: 75
- HNE-neutralizing activity relative to DX890 (HNE): ~16%

Molecule: EACNLPIVRGPCIAFFPRWAFDAVKGKCVLFPYGGCQGNGNKFYSEKECREYCGVP (disulfide 3-53, 12-36, 28-49) [DX-890]
- in vivo stability, SEC analysis of plasma [2]: relatively rapid association of label with higher molecular weight plasma components
- % α ([2]; in vivo): 75%
- % β ([2]; in vivo): 25%
- Clearance Times T1/2α ([2]; in vivo): 24 s

Molecule: bovine pancreatic trypsin inhibitor [BPTI]
- decrease of mean amount transfused [3]: 74%
- reduction of blood loss [3]: almost half

B1: Pulmozyme: a recombinant human deoxyribonuclease which reduces mucus viscoelasticity by hydrolyzing DNA in sputum (protein, UniProt P24855 23-282, looked up)
Deoxyribonuclease-1: LKIAAFNIQTFGETKMSNATLVSYIVQILSRYDIALVQEVRDSHLTAVGKLLDNLNQDAPDTYHYVVSEPLGRNSYKERYLFVYRPDQVSAVDSYYYDDGCEPCGNDTFNREPAIVRFFSRFTEVREFAIVPLHAAPGDAVAEIDALYDVYLDVQEKWGLEDVMLMGDFNAGCSYVRPSQWSSIRLWTSPTFQWLIPDSADTTATPTHCAYDRIVVAGMLLRGAVVPDSALPFNFQAAYGLSDQLAQAISDHYPVEVMLK
- effect on pulmonary function [4]: increase FEV1 and FVC
